Experimental data: the supplement of paper PMC10567573

B1: TMEM106C (parent)
chain: SEQLVNFTGKAEMGGPFSYVYFFC

Variants of: B1
Assay: protein stability index of a GFP-peptide fusion (GPS, HEK-293T) (PSI 1-6); higher = more stable
Settings: c terminus: a fixed tail appended
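Also: lentivirally expressed fusions sorted by FACS into six bins by GFP to DsRed ratio, PSI derived from sequencing read proportions per bin multiplied by bin number.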

Row | Variant | protein stability index
1 | SEQLVNFTGKAEMGGPFSYEYFFC [V20E] | 2.13
2 | SEQLVNFTGKAEMGGPFSYIYFFC [V20I] | 2.7
3 | SEQLVNFTGKAEMGGPFSYPYFFC [V20P] | 1.98
4 | SEQLVNFTGKAEMGGPFSYQYFFC [V20Q] | 2.65
5 | SEQLVNFTGKAEMGGPFSYLYFFC [V20L] | 2.07
6 | SEQLVNFTGKAEMGGPFSYSYFFC [V20S] | 2.56
7 | SEQLVNFTGKAEMGGPFSYCYFFC [V20C] | 3.09
8 | SEQLVNFTGKAEMGGPFSYNYFFC [V20N] | 2.69
9 | SEQLVNFTGKAEMGGPFSYDYFFC [V20D] | 1.76
10 | SEQLVNFTGKAEMGGPFSYWYFFC [V20W] | 1.79
11 | SEQLVNFTGKAEMGGPFSYTYFFC [V20T] | 2.77
12 | SEQLVNFTGKAEMGGPFSYRYFFC [V20R] | 1.68
13 | SEQLVNFTGKAEMGGPFSYHYFFC [V20H] | 2.53
14 | SEQLVNFTGKAEMGGPFSYFYFFC [V20F] | 2.17
15 | SEQLVNFTGKAEMGGPFSYAYFFC [V20A] | 2.9
16 | SEQLVNFTGKAEMGGPFSYYYFFC [V20Y] | 2.53
17 | SEQLVNFTGKAEMGGPFSYMYFFC [V20M] | 2.65
18 | SEQLVNFTGKAEMGGPFSYGYFFC [V20G] | 2.35
19 | SEQLVNFTGKAEMGGPFSYKYFFC [V20K] | 1.55
20 | SEQLVNFTGKAEMGGPFSYVYFDC [F23D] | 1.56
21 | SEQLVNFTGKAEMGGPFSYVYFGC [F23G] | 3.03
22 | SEQLVNFTGKAEMGGPFSYVYFAC [F23A] | 2.45
23 | SEQLVNFTGKAEMGGPFSYVYFWC [F23W] | 3.85
24 | SEQLVNFTGKAEMGGPFSYVYFHC [F23H] | 2.28
25 | SEQLVNFTGKAEMGGPFSYVYFRC [F23R] | 4.48
26 | SEQLVNFTGKAEMGGPFSYVYFEC [F23E] | 2.15

Row | Variant | protein stability index
27 | SEQLVNFTGKAEMGGPFSYVYFLC [F23L] | 2.08
28 | SEQLVNFTGKAEMGGPFSYVYFCC [F23C] | 2.54
29 | SEQLVNFTGKAEMGGPFSYVYFYC [F23Y] | 3.3
30 | SEQLVNFTGKAEMGGPFSYVYFQC [F23Q] | 2.9
31 | SEQLVNFTGKAEMGGPFSYVYFKC [F23K] | 1.79
32 | SEQLVNFTGKAEMGGPFSYVYFTC [F23T] | 2.05
33 | SEQLVNFTGKAEMGGPFSYVYFSC [F23S] | 3.45
34 | SEQLVNFTGKAEMGGPFSYVYFNC [F23N] | 1.35
35 | SEQLVNFTGKAEMGGPFSYVYFVC [F23V] | 3.22
36 | SEQLVNFTGKAEMGGPFSYVYFIC [F23I] | 2.42
37 | SEQLVNFTGKAEMGGPFSYVYFPC [F23P] | 1.51
38 | SEQLVNFTGKAEMGGPTSYVYFFC [F17T] | 2.41
39 | SEQLVNFTGKAEMGGPVSYVYFFC [F17V] | 2.46
40 | SEQLVNFTGKAEMGGPMSYVYFFC [F17M] | 3.54
41 | SEQLVNFTGKAEMGGPSSYVYFFC [F17S] | 2.5
42 | SEQLVNFTGKAEMGGPYSYVYFFC [F17Y] | 2.21
43 | SEQLVNFTGKAEMGGPDSYVYFFC [F17D] | 1.95
44 | SEQLVNFTGKAEMGGPRSYVYFFC [F17R] | 3.07
45 | SEQLVNFTGKAEMGGPNSYVYFFC [F17N] | 2.93
46 | SEQLVNFTGKAEMGGPCSYVYFFC [F17C] | 2.79
47 | SEQLVNFTGKAEMGGPGSYVYFFC [F17G] | 2.28
48 | SEQLVNFTGKAEMGGPISYVYFFC [F17I] | 2.47
49 | SEQLVNFTGKAEMGGPESYVYFFC [F17E] | 1.97
50 | SEQLVNFTGKAEMGGPPSYVYFFC [F17P] | 1.84
51 | SEQLVNFTGKAEMGGPASYVYFFC [F17A] | 2.55
52 | SEQLVNFTGKAEMGGPQSYVYFFC [F17Q] | 2.77

Row | Variant | protein stability index
53 | SEQLVNFTGKAEMGGPLSYVYFFC [F17L] | 3.08
54 | SEQLVNFTGKAEMGGPHSYVYFFC [F17H] | 2.22
55 | SEQLVNFTGKAEMGGPWSYVYFFC [F17W] | 3.31
56 | SEQLVNFTGKAEMGGPKSYVYFFC [F17K] | 2.42
57 | SEQLVNFTGKAEMGGPFSYVDFFC [Y21D] | 1.89
58 | SEQLVNFTGKAEMGGPFSYVLFFC [Y21L] | 3.93
59 | SEQLVNFTGKAEMGGPFSYVVFFC [Y21V] | 3.6
60 | SEQLVNFTGKAEMGGPFSYVQFFC [Y21Q] | 2.15
61 | SEQLVNFTGKAEMGGPFSYVKFFC [Y21K] | 2.06
62 | SEQLVNFTGKAEMGGPFSYVCFFC [Y21C] | 2.42
63 | SEQLVNFTGKAEMGGPFSYVAFFC [Y21A] | 3.06
64 | SEQLVNFTGKAEMGGPFSYVPFFC [Y21P] | 1.49
65 | SEQLVNFTGKAEMGGPFSYVRFFC [Y21R] | 1.49
66 | SEQLVNFTGKAEMGGPFSYVEFFC [Y21E] | 1.42
67 | SEQLVNFTGKAEMGGPFSYVFFFC [Y21F] | 3.1
68 | SEQLVNFTGKAEMGGPFSYVNFFC [Y21N] | 2.82
69 | SEQLVNFTGKAEMGGPFSYVTFFC [Y21T] | 3.31
70 | SEQLVNFTGKAEMGGPFSYVHFFC [Y21H] | 2.26
71 | SEQLVNFTGKAEMGGPFSYVGFFC [Y21G] | 1.84
72 | SEQLVNFTGKAEMGGPFSYVMFFC [Y21M] | 3.64
73 | SEQLVNFTGKAEMGGPFSYVSFFC [Y21S] | 2.44
74 | SEQLVNFTGKAEMGGPFSYVYDFC [F22D] | 2.33
75 | SEQLVNFTGKAEMGGPFSYVYHFC [F22H] | 3.04
76 | SEQLVNFTGKAEMGGPFSYVYQFC [F22Q] | 2.07
77 | SEQLVNFTGKAEMGGPFSYVYMFC [F22M] | 3.04
78 | SEQLVNFTGKAEMGGPFSYVYYFC [F22Y] | 2.78

Row | Variant | protein stability index
79 | SEQLVNFTGKAEMGGPFSYVYVFC [F22V] | 3.27
80 | SEQLVNFTGKAEMGGPFSYVYKFC [F22K] | 1.84
81 | SEQLVNFTGKAEMGGPFSYVYWFC [F22W] | 2.21
82 | SEQLVNFTGKAEMGGPFSYVYCFC [F22C] | 2.58
83 | SEQLVNFTGKAEMGGPFSYVYPFC [F22P] | 2.06
84 | SEQLVNFTGKAEMGGPFSYVYNFC [F22N] | 1.79
85 | SEQLVNFTGKAEMGGPFSYVYGFC [F22G] | 2.86
86 | SEQLVNFTGKAEMGGPFSYVYAFC [F22A] | 2.62
87 | SEQLVNFTGKAEMGGPFSYVYTFC [F22T] | 3.71
88 | SEQLVNFTGKAEMGGPFSYVYIFC [F22I] | 1.96
89 | SEQLVNFTGKAEMGGPFSYVYRFC [F22R] | 2.28
90 | SEQLVNFTGKAEMGGPFSYVYSFC [F22S] | 2.12
91 | SEQLVNFTGKAEMGGPFSYVYEFC [F22E] | 1.88
92 | SEQLVNFTGKAEMGGPFSTVYFFC [Y19T] | 2.33
93 | SEQLVNFTGKAEMGGPFSMVYFFC [Y19M] | 3.35
94 | SEQLVNFTGKAEMGGPFSIVYFFC [Y19I] | 2.51
95 | SEQLVNFTGKAEMGGPFSHVYFFC [Y19H] | 3.66
96 | SEQLVNFTGKAEMGGPFSCVYFFC [Y19C] | 2.1
97 | SEQLVNFTGKAEMGGPFSLVYFFC [Y19L] | 2.89
98 | SEQLVNFTGKAEMGGPFSQVYFFC [Y19Q] | 2.12
99 | SEQLVNFTGKAEMGGPFSFVYFFC [Y19F] | 2.11
100 | SEQLVNFTGKAEMGGPFSAVYFFC [Y19A] | 2
101 | SEQLVNFTGKAEMGGPFSNVYFFC [Y19N] | 1.97
102 | SEQLVNFTGKAEMGGPFSGVYFFC [Y19G] | 2.97
103 | SEQLVNFTGKAEMGGPFSDVYFFC [Y19D] | 1.91
104 | SEQLVNFTGKAEMGGPFSRVYFFC [Y19R] | 2.1

Row | Variant | protein stability index
105 | SEQLVNFTGKAEMGGPFSEVYFFC [Y19E] | 1.93
106 | SEQLVNFTGKAEMGGPFSPVYFFC [Y19P] | 1.74
107 | SEQLVNFTGKAEMGGPFSVVYFFC [Y19V] | 3.9
108 | SEQLVNFTGKAEMGGPFSKVYFFC [Y19K] | 3.22
109 | SEQLVNFTGKAEMGGPFSWVYFFC [Y19W] | 2.46
110 | SEQLVNFTGKAEMGGPFSYVYFFW [C24W] | 3.35
111 | SEQLVNFTGKAEMGGPFSYVYFFP [C24P] | 1.73
112 | SEQLVNFTGKAEMGGPFSYVYFFN [C24N] | 1.89
113 | SEQLVNFTGKAEMGGPFSYVYFFD [C24D] | 2.36
114 | SEQLVNFTGKAEMGGPFSYVYFFH [C24H] | 3.25
115 | SEQLVNFTGKAEMGGPFSYVYFFG [C24G] | 2.53
116 | SEQLVNFTGKAEMGGPFSYVYFFS [C24S] | 2.23
117 | SEQLVNFTGKAEMGGPFSYVYFFT [C24T] | 3.96
118 | SEQLVNFTGKAEMGGPFSYVYFFV [C24V] | 3.49
119 | SEQLVNFTGKAEMGGPFSYVYFFR [C24R] | 2.09
120 | SEQLVNFTGKAEMGGPFSYVYFFM [C24M] | 2.82
121 | SEQLVNFTGKAEMGGPFSYVYFFA [C24A] | 3.11
122 | SEQLVNFTGKAEMGGPFSYVYFFI [C24I] | 3.26
123 | SEQLVNFTGKAEMGGPFSYVYFFE [C24E] | 2.29
124 | SEQLVNFTGKAEMGGPFSYVYFFK [C24K] | 2.07
125 | SEQLVNFTGKAEMGGPFSYVYFFQ [C24Q] | 1.54
126 | SEQLVNFTGKAEMGGPFSYVYFFY [C24Y] | 3.05
127 | SEQLVNFTGKAEMGGPFSYVYFFF [C24F] | 3.13
128 | SEQLVNFTGKAEMGGPFFYVYFFC [S18F] | 3.04
129 | SEQLVNFTGKAEMGGPFAYVYFFC [S18A] | 2.29
130 | SEQLVNFTGKAEMGGPFCYVYFFC [S18C] | 2.74

Row | Variant | protein stability index
131 | SEQLVNFTGKAEMGGPFQYVYFFC [S18Q] | 2.45
132 | SEQLVNFTGKAEMGGPFGYVYFFC [S18G] | 1.88
133 | SEQLVNFTGKAEMGGPFMYVYFFC [S18M] | 4.17
134 | SEQLVNFTGKAEMGGPFHYVYFFC [S18H] | 2.35
135 | SEQLVNFTGKAEMGGPFWYVYFFC [S18W] | 1.72
136 | SEQLVNFTGKAEMGGPFTYVYFFC [S18T] | 2.31
137 | SEQLVNFTGKAEMGGPFPYVYFFC [S18P] | 2.26
138 | SEQLVNFTGKAEMGGPFYYVYFFC [S18Y] | 2.04
139 | SEQLVNFTGKAEMGGPFKYVYFFC [S18K] | 2.25
140 | SEQLVNFTGKAEMGGPFNYVYFFC [S18N] | 3
141 | SEQLVNFTGKAEMGGPFVYVYFFC [S18V] | 4.08
142 | SEQLVNFTGKAEMGGPFIYVYFFC [S18I] | 3.11
143 | SEQLVNFTGKAEMGGPFLYVYFFC [S18L] | 3.3
144 | SEQLVNFTGKAEMGGPFRYVYFFC [S18R] | 3.37
145 | SEQLVNFTGKAEMGGPFEYVYFFC [S18E] | 2.23
146 | SEQLVNFTGKAEMGGSFSYVYFFC [P16S] | 2.1
147 | SEQLVNFTGKAEMGGYFSYVYFFC [P16Y] | 3.76
148 | SEQLVNFTGKAEMGGTFSYVYFFC [P16T] | 2.4
149 | SEQLVNFTGKAEMGGWFSYVYFFC [P16W] | 2.94
150 | SEQLVNFTGKAEMGGRFSYVYFFC [P16R] | 3.05
151 | SEQLVNFTGKAEMGGVFSYVYFFC [P16V] | 2.47
